# According to the nanobody polyreactivity screen of Harvey et al. (2022):
# Assay: yeast display, Sf9 membrane polyspecificity reagent, FACS + sequencing; frameworks hold sequencing errors
# Outline: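 Synthetic nanobody libraries on Saccharomyces cerevisiae BJ5465 were galactose-induced for 36–48 hours, stained 1 hour at 4 °C with 10% biotinylated, detergent-solubilized Sf9 membrane reagent and enriched on streptavidin microbeads. FACS then separated cells into low and high (top ~1%) gates by anti-HA (expression) and streptavidin (reagent binding) fluorescence. Genes were colony-PCR amplified, MiSeq 2 × 250 sequenced and CDR-length filtered. A clone's polyreactivity label is that of its gate of origin.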
row,Sequence,polyreactivity (PSR sort gate)
1,QDQRVESGGGLVQAGGSLRLSCAASGSIRGYAMGWYRQAPGKERELVASITWSGGSTYYADSVKGRFTISRDNSKNTVYLQMNSLKPEDPAVFYCAARPSPYASFFRPYDYWGQGTQVTVSS,low polyreactivity
2,QDQVVESGGGLVQAGGSLRLSCAASGRIFFAYAMGLYRQAAGTERELVAAITSSGNTYYADSVKGRFTISRDNAKNTVFLQINSLKPEDTAVYYCATGYWELRYDYWGQGTQLTVSS,low polyreactivity
3,QDQVVESGGGLVQAGGSLRLSCAASGRTFAIYAMGWYRQAPGKEREFVAAITWRSGSTYYADSVKGRFTISRDNAKNTVYLQMMSVKPEDTAVYFCAAYPYSYLQLMDYWGQGTQVTVSS,high polyreactivity
4,QEQLQERAAWCRRAGSLRLSCAASGNISDYYFMGWYRQAPGKERELVAAIAPGSNTYYADSVKGRFTISRDNAKNTVYLQMNSLKPEDTAVCFCAANSTQYTWFDYWGQGTQVPVSS,low polyreactivity
5,QEQLQESGGGLVQACGSLRLSCAASGYIFSHQYMGWYRQAPGKERELVASISPRATTNYADSVKGRFTISRDNAKNTVYLQMNSLKPEDTAVYYYAVYQILDRRLSYWGQGTQVTVSC,high polyreactivity
6,QEQLQESGGGLVQAGDSPRLSCAESGYITARTGMGSYRQAPGKEREFVAGIASGTRTHYADSVKGRFTISRDNAKNAVYLQMTSLKPEDTAVYYCAATFGFFYYQYDYWGQGTQVTVSS,low polyreactivity
7,QEQLQESGGGLVQAGGSLRLSCAASGNISTHQLYMGSYRQAPGKEREFVAAINFGASTYYADSVKGRNTISRDNAKYTVYLQMNSLKPEDTAVYYCNADWYYYYEVDDYWGQGTQVTVSS,low polyreactivity
8,QEQLQESGGGLVQAGGSLRLSCAASGSIYDDTYMARYRQAPGKERELVATIDSGSTTNYADSVKGRITISRDNAKNTVYLQMNSLKPEDSAVYYCAAADSHIDYFDYWGQGTQVTVSS,low polyreactivity
9,QEQLQESGGGLVQAGGSLRLSCAASGYISSWYPMGWYRQAPGKEREFVATIAPGATTYYADSVKGRFTISRDYAKNTVYLQMNSLTPEDTAVYYCAAGPENNDFYSYWGQGTQVTVSS,low polyreactivity
10,QEQLQESGGGLVQAGGSQSLSCAASGIIFDWFFMGWYRQAPGREREFVAAITYGATTNYADSVKGRFTISRDNGKITVYLQMNSLKPEDCAVYYCAAASPLYWVDDFESGWRYYYWGQGTQVTVSS,low polyreactivity
11,QEQLQESGSGLVQAGGSLRLSCAASGNIFQDWVMAWYRQAPGKERELVAAISPGAITYYADSVKGRFTISRDNAKNTVYLQTNSLKPEDTAVYYCAAYYIVEYLHGYWGQGTRVTVSS,low polyreactivity
12,QEQLQESGSGLVQAGGSLRLSCAASGNIFQDWVMGWYRKAPGQERELVAAISPGAITYYADSVKGRFTISRDNAKNSVYLQTKSLKPEDTAVYYCGAYYIVEYLHGYWGQGTRVTVSS,low polyreactivity
13,QEQLQESRGGLVQAGGSLRMTCAASGYNYLAHTIGWYRQAPGKELEFVASIALGSSTYYTDSVKGSFTISRDNAKTTVYLQKNSQKPEDTAVYYCAARVGASYAHDYWGQGTQVTVSS,low polyreactivity
14,QEQLVESGGGLVQAGGSLRLSCAASGFIFAPYAMGWYSQAPGKDRDLVAAISSSGGSTYYADSVKGRFTISRDNAKNTVYLQMNSLKPEDTAVFYCAARGNFGANPGRKHGFDYWGQGTQVTVSS,low polyreactivity
15,QEQLVQSAGGLVQAGGSLPLSCAASGSIIISNAMGWYRQAPGKERELVAAISRSGARTYYADSVKGRFTISRDNAKNTVYLQMNSLKPEDTAVYSCAVDGYSPYKYDYWGQGTLVTVSS,high polyreactivity
16,QFHLVESGGGLVQAGGSLRLSCAASGSTFWFNVMGWYRQAPGKEREFVAAISSIGGSTYYADSVKGRFTISRDNAKNTVYLQMNSMKPEDTAVYYCAVEVVRVYRYDYWGQGTQVTVTS,low polyreactivity
17,QFHLVESGRDFVQAAGSLLLSCAASASIFRYYTMGWYRQAPGKETELVATITDRGTSTYDADSVKGRFTLSRESV,high polyreactivity
18,QFQHVESGGGLDQARGRLRLSCAASGYTFAKYTMGSYRQAPGKERELVAAISRGGSTTYADSVKGRFTISRDNAKNTVYLQMNSLKPEDTAVYDCAASGTKREDGYSLGYPRAGDYWGQGTQVTVSS,low polyreactivity
